What is called Kd is the free concentration of one partner at which half of the binding sites on the other are occupied at equilibrium, for simple one-to-one binding. Low values mean tighter binding, high ones weaker binding.

For test [1], the target named is T1, Cyclophilin 40 (human; pDEST14-6H-TEV-hCyp40) (human, UniProt Q08752 1-370).
T1 construct: Cyclophilin 40 (Cyp40, PPID), human; construct pDEST14-6H-TEV-hCyp40; Monomeric by dynamic light scattering; also called PPID; source: E. coli BL21 star (DE3), purified (IMAC, gel filtration on Superdex 200)
T1 sequence (Q08752 whole entry): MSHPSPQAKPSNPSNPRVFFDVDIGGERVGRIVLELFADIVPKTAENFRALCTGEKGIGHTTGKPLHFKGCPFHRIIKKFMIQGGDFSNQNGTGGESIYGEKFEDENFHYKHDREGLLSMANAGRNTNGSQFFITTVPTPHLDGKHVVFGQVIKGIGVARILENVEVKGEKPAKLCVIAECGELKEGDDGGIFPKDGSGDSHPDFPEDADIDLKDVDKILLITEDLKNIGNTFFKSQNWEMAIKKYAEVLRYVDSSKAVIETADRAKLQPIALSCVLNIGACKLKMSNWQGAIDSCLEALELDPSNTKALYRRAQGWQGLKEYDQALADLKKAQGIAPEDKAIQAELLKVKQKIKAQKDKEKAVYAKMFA
Put plainly: ITC; 500 uM SRMEEVD titrated into 7.7 uM Cyp40 in 15 x 2.5 ul aliquots; 50 mM Hepes pH 8, 100 mM sodium chloride, 1 mM DTT; 1:1 binding model; 20 °C (value told with Supplementary Figure S2). To be noted: both partners purified.

The target in test [2] is T1, Cyclophilin 40 (human; …). Put plainly: ITC; 500 uM SRMEEVD titrated into 7.7 uM Cyp40 in 15 x 2.5 ul aliquots; 50 mM Hepes pH 8, 100 mM sodium chloride, 1 mM DTT; 1:1 binding model; 30 °C (highest attainable temperature). To be noted: both partners purified. (In general: ITC needs no label: the signal is the heat of the interaction.)
In test [3] the target is T1, Cyclophilin 40 (human; …). In words: ITC; 500 uM SRMEEVD titrated into 7.7 uM Cyp40 in 15 x 2.5 ul aliquots; 50 mM Hepes pH 8, 100 mM sodium chloride, 1 mM DTT; 1:1 binding model; 10 °C. To be noted: both partners purified.
In test [4] the target is Cyclophilin 40 (human; pDEST14-6H-TEV-hCyp40) (human) (UniProt Q08752).
Sequence of Cyclophilin 40 (human; pDEST14-6H-TEV-hCyp40) (human) (Q08752 whole entry): as above

On to SRMEEVD (also called Hsp90 peptide; Hsp90 wt) [SRMEEVD peptide (Hsp90 wild-type C-terminal peptide)], for which the values for the Kd in test [1], in test [2] and in test [3] were 10.7 µM, about 25 µM and about 5 µM, respectively.
GPTIEEVD [GPTIEEVD peptide (Hsp70 wild-type C-terminal peptide)] came in with a reduction of the PPIase activity of Cyp40 (10 nM) by 250 uM peptide, substrate Suc-A-A-P-F-p-NA, 10 °C in test [4] of over 30%.
On the same count and under the same terms, for GAAAEEVD [GAAAEEVD peptide (Hsp70 mutant C-terminal peptide)] the value was over 30%.

The values above are taken from article PMC4721547, “Cyclophilin40 isomerase activity is regulated by a temperature-dependent allosteric interaction with Hsp90” (Bioscience Reports, 2015).
